These results are taken from PMC7855779.

Where two headings read alike, the source gives them in different places.

Assay [1] deals with MD2 (Homo sapiens) (UniProt Q9Y6Y9). Conditions: cited from earlier work.
The target in assay [2] is MD2-TLR4 complex (rat (endogenous in NRK-52E)) (UniProt Q9QX05).
Assay [3] shares this target. This is another data set of the same source.
For assay [4], the target named is MD2 (Homo sapiens) (UniProt Q9Y6Y9). Conditions: cited from earlier work. The source holds these as a separate data set.

Chain of UniProt Q9QX05 (Q9QX05 whole entry, looked up, one chain of several): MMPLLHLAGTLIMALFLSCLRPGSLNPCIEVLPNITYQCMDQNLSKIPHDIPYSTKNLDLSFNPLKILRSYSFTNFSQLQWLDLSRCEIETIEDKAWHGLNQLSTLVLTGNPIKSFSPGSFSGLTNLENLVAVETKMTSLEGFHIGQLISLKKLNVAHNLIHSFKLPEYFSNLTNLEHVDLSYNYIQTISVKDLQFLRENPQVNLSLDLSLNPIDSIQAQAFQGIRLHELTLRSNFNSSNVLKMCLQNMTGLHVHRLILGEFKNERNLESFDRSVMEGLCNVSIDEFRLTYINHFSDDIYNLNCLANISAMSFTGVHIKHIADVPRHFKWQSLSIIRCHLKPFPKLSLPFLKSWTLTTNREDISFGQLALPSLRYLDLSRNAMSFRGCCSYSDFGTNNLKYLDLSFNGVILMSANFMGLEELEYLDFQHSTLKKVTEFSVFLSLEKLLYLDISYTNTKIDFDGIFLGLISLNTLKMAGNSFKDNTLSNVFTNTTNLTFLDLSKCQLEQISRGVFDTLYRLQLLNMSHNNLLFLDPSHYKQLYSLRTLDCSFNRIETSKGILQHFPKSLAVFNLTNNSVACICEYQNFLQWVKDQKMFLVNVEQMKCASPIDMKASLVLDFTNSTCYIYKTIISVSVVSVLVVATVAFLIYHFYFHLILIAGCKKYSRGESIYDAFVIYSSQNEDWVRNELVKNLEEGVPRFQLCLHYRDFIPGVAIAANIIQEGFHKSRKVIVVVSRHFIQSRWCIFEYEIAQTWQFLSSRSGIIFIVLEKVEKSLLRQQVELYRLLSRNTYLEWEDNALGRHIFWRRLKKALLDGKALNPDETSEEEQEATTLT
Chain of UniProt Q9Y6Y9 (Q9Y6Y9 19-160): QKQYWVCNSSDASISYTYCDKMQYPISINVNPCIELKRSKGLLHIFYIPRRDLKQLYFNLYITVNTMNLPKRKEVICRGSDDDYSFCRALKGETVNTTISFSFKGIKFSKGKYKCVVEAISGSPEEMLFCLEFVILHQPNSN

Regarding Angiotensin II (from UniProt P01019), in the assay with MD2 (Homo sapiens) [1], the Kd is 200 µM. In the case of Angiotensin II (peptide), the IL-6 content of the media of NRK-52E cells (ELISA), Ang II 1 μM against control in assay [2] is 15 pg/mL; in assay [3], 61 pg/mL. For the substance HMGB1 (from UniProt P09429), the Kd in the assay with MD2 (Homo sapiens) [4] is 0.6 µM.
